Reference: patent US7018801B2, “Selection of peptides with antibody-like properties” (Board of Regents, The University of Texas System, priority 2000, dated 2006)
Peptide text beside a SMILES is read from it.

Assays:
[1] = target: T1, GST fusion protein containing the target epitope (Homo sapiens, UniProt P01584, A117G); assay: Far Western blot of DBD-LEP fusions probed with GST-epitope fusion protein; type: binding; conditions: extract of phage-resistant cells expressing DBD-LEP fusion; anti-GST antibody detection
T1 construct: made in house
Method: FIG. 5—“Far Western” blot protocol to eliminate false positives. An extract is prepared from phage-resistant cells that express the DBD-LEP fusion. This is electrophoresed through a denaturing gel, then blotted onto a membrane. This is probed with a GST fusion protein containing the target epitope, followed by labeled anti-GST antibody to visualize the site(s) of binding of the GST-peptide fusion protein.
The putative epitope-binding LEPs that survive the tests described above are then tested biochemically for epitope binding. […] This is done by expressing a GST fusion protein containing the target peptide at the C-terminus. This protein is then employed as a probe in a Far-Western blot experiment (FIG. 5). Crude extracts from cells that express the Repressor DBD-LEP fusion are electrophoresed through a denaturing gel and blotted onto a suitable surface, such a nitrocellulose. The blot is then probed with the GST-epitope fusion protein, followed by anti-GST antibody and finally an HRP-conjugated secondary to visualize the binding events. Lanes in which the band corresponding to the Repressor DBD-LEP is bound by the GST-epitope fusion protein are considered true hits.

[2] = target: ICS (pro-IL-1β-derived epitope, 14 mer) (Homo sapiens, UniProt P01584, A117G); assay: Measured KD of the LEPB-ICS complex; type: binding
Source text: Finally, the most rigorous tests for peptide-peptide interaction involve spectroscopic assays. These experiments provide quantitative data regarding the affinity of the LEP for the epitope target. For example, fluorescence polarization (Heyduk et al., 1996) can be employed. In this experiment, one of the peptides is synthesized with a covalently coupled fluorescein molecule. A low concentration of this species (usually 10^−8 M to 10^−10 M) is titrated with increasing amounts of a fusion protein containing the partner peptide. The increase in the polarization of the fluorescence as a result of binding of the low molecular weight fluorescein-peptide conjugate to the high molecular weight fusion protein is monitored.
The affinities of the isolated peptides for their epitope targets can be determined by a number of methods. These include fusion of one or both of the interacting peptides to heterologous proteins, followed by the binding of one of the fusions to an affinity resin. The affinity of the partner fusion protein for this resin is then determined. Another common technique is surface plasmon resonance, in which one of the interacting peptides or fusion proteins is immobilized on an appropriately modified gold surface, and the on and off rates of the partner peptide are measured using the commercially available BIAcore instrument or an equivalent. […]

Compound: PCHLNCSLQTLSPTRTTPRKHCKHCFKTLSEKMKWN [LEPD]
- Far Western blot signal [1]: weak or unobservable signals

Compound: CC(C)C[C@H](NC(=O)[C@H](CCC(=O)O)NC(=O)[C@H](C)NC(=O)[C@H](CCC(=O)O)NC(=O)[C@H](CCCCN)NC(=O)[C@H](CCCNC(=N)N)NC(=O)[C@H](C)NC(=O)[C@@H](N)CCCCN)C(=O)N[C@@H](C)C(=O)N[C@@H](C)C(=O)N[C@@H](C)C(=O)N[C@H](C(=O)N[C@@H](C)C(=O)N[C@@H](CCC(=O)O)C(=O)N[C@@H](CCC(N)=O)C(=O)O)[C@@H](C)O [LEPB] (H-KARKEAELAAATAEQ-OH)
- Kd [2]: 2 µM
